Assay results published in patent publication US20210147541A1 (Kyowa Kirin, published 2021).
Where two headings read alike, the source gives them in different places.

Assays:
hCADM3-GST [1] = biological target: T1, hCADM3-GST (human); assay: phage ELISA, hCADM3-GST immobilized
T1 construct: also called extracellular domain of human CADM3 to which GST was added at the C-terminal side; human CADM3-GST
Procedure: (§1) In the ELISA, hCADM3-GST and mCADM3-GST were immobilized (50 ng/50 μL) on MAXISORP (manufactured by NUNC, Inc.), followed by blocking using 0.5% BSA. To each well, each phage clone was added and allowed to react at room temperature for 1 hour, and thereafter, each well was washed 5 times with PBS-T. Subsequently, a biotinylated anti-M13 phage antibody (manufactured by Abcam plc) and horseradish peroxidase-labeled streptavidin (manufactured by Vector Co., Ltd.) were added to each well in an amount of 50 μL, followed by incubation at room temperature for 1 hour.
(§2) After the microplate was washed with PBS-T, a 3,3′,5,5′-tetramethylbenzidine (TMB) chromogenic substrate solution (manufactured by Calbiochem, Inc.) was added to each well, followed by incubation at room temperature. The coloring reaction was stopped by adding a 1 mol/L hydrochloric acid to each well, and an absorbance at a wavelength of 450 nm (reference wavelength: 570 nm) was measured using a microplate reader.

mCADM3-GST [2] = biological target: T2, mCADM3-GST (mouse); assay: phage ELISA, mCADM3-GST immobilized
T2 construct: also called extracellular domain of mouse CADM3 to which GST was added at the C-terminal side; mouse CADM3-GST
Procedure: as §1, §2

human CADM3 = biological target: T3, human CADM3 (human, UniProt Q8N126 25-398); assay: flow cytometry, 10 ug/mL, human CADM3/Expi293F vs parent Expi293F cells
T3 construct: Full-length gene expressed transiently on Expi293F cells; also called cell adhesion molecule 3; human CADM3/Expi293F cells
T3 sequence: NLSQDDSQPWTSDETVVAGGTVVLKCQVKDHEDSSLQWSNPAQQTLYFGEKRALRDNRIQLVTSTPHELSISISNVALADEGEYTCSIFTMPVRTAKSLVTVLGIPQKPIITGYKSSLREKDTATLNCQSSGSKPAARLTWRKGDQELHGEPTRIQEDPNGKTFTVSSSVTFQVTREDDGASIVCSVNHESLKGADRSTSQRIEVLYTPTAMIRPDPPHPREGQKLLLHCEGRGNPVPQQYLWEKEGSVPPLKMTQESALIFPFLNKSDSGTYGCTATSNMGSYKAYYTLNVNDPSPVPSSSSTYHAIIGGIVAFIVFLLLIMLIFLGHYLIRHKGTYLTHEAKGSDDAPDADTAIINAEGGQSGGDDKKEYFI
Procedure: (§3) After washing with SB, the cells were suspended in SB, and the fluorescence intensity of each cell was measured using a flow cytometer FACS CANTO II (manufactured by Becton, Dickinson and Company). Note that as a negative control, 10 μg/mL of the anti-AVM antibody was used.
(§4) The detection results were analyzed, and a mean fluorescence intensity (MFI) was calculated using a geometric mean. Further, with respect to the MFI when the concentration of each antibody was 10 μg/mL, the ratio of the MFI (mean fluorescence intensity ratio) between the human CADM3/Expi293F cells and the Expi293F cells (parent cell line) was calculated.
(§5) With respect to the produced humanized anti-CADM3 VHH-Fc antibodies, reactivity with Expi293F cells, human CADM3/Expi293F cells, and mouse CADM3/Expi293F cells was analyzed by the same procedure as in Example 3.

mCADM3-GST [3] = biological target: T2, mCADM3-GST; assay: SPR (Biacore T-100), antibody captured, mCADM3-GST as analyte
Procedure: (§6) The affinity of the anti-CADM3 antibodies produced in Example 2 for human CADM3 and mouse CADM3 was measured using Biacore T-100 (GE Healthcare). Each of the antibodies was immobilized on a […] sensor chip using a Human antibody Capture kit, and the binding ability was evaluated using hCADM3-GST and mCADM3-GST produced in Example 4 as analytes.
(§7) With respect to the produced humanized anti-CADM3 antibodies, affinity for CADM3 by surface plasmon resonance detection was evaluated by the same procedure as in Example 6.

hCADM3-GST [4] = biological target: T1, hCADM3-GST; assay: SPR (Biacore T-100), antibody captured, hCADM3-GST as analyte
Procedure: as §6, §7

mouse CADM3 [5] = biological target: T4, mouse CADM3 (mouse, UniProt Q99N28 23-396); assay: flow cytometry, 10 ug/mL, mouse CADM3/Expi293F vs parent Expi293F cells
T4 construct: Full-length gene expressed transiently on Expi293F cells; also called mouse CADM3/Expi293F cells; Mouse CADM3-expressing cells
T4 sequence: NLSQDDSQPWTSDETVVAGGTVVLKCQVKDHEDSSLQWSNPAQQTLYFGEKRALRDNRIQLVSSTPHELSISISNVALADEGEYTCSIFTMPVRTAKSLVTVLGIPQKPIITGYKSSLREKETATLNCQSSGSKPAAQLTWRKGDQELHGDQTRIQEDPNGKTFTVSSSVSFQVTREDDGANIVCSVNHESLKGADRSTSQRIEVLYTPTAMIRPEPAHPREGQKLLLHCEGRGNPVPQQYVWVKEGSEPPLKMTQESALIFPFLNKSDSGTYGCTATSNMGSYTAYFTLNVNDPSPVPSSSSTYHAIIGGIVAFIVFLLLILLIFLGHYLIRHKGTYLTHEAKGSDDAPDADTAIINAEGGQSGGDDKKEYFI
Procedure: as §3, §4, §5

mouse CADM3 [6] = biological target: T4, mouse CADM3; assay: as above; remark: listed apart in the source
Procedure: as §3, §4
Further, also with respect to AVM IgG4PE(R409K)_iCADM3_3R1-L5 dVHH, AVM IgG4PE(R409K)_iCADM3_3R1-L8 dVHH, AVM IgG4PE(R409K)_iCADM3_3R1-L10 dVHH, and AVM IgG4PE(R409K)_iCADM3_3R1-L11 dVHH, reactivity with the Expi293F cells, the human CADM3/Expi293F cells, and the mouse CADM3/Expi293F cells was analyzed by the same procedure, and the results are shown in Table 5.

Binder	binding result (hCADM3-GST [1])	binding result (mCADM3-GST [2])	Mean fluorescence intensity ratio (human CADM3)	Mean fluorescence intensity ratio (mouse CADM3 [5])	further results
iCADM3_3R1-L10 (VHH, also called iCADM3-3R1-L10 antibody; anti-CADM3 VHH antibody (phage clone)) VHH: QVQLVESGGGLVQAGGSLRLSCAASGSIFSIHAMGWYRQAPGKQRELVATVTSGGSTNYADSVKGRFTISRDNAKNTVYLQMNSLKPEDTAVYYCNAETPYYSSTYYTNYWGQGTQVTVSS	binds	binds	–	–	–
iCADM3_3R1-L11 (VHH, also called iCADM3-3R1-L11 antibody; anti-CADM3 VHH antibody (phage clone)) VHH: QVQLVESGGGLVQAGGSLRLSCAASGSIFSFNAMGWYRQAPGKQRGLVAVITSGGYTNYADSVKGRFTITRDNAKNTVYLQMNSLKPEDTAVYYCNAEGVYSDYVIMNYWGQGTQVTVSS	binds	binds	–	–	–
iCADM3_3R1-L5 (VHH, also called iCADM3-3R1-L5 antibody; anti-CADM3 VHH antibody (phage clone)) VHH: QVQLVESGGGLVQAGGSLRLSCAASGSIVSVNAMGWYRQAPGKQRELVATITSGGSTNYADSAKGRFTISRDNAKNTMYLQMNSLKPEDTAVYYCNGEFWSRRDTRPPGVVNYWGQGTQVTVSS	binds	binds	–	–	–
iCADM3_3R1-L8_04 VHH-hG4PE(R409K) (Fc fusion, also called iCADM3-3R1-L8_04 humanized antibody; not shown: Hinge-CH2-CH3 region of the human IgG4 heavy chain constant region (IgG4 variant)) QVQLVESGGGLVQPGGSLRLSCAASGRTFSNYARGWFRQAPGKEREFVAAIDYSGGSTNYADSAKGRFTISRDNSKNTVYLQMNSLRAEDTAVYYCAAPASRRPSWDADGYDYWGQGTLVTVSS	–	–	6.2	9.62	Kd (mCADM3-GST [3]): 5.22 nM; koff (mCADM3-GST [3]): 0.00064 s⁻¹; kon (mCADM3-GST [3]): 120000 M⁻¹ s⁻¹; Kd (hCADM3-GST [4]): 5.34 nM; koff (hCADM3-GST [4]): 0.00078 s⁻¹; kon (hCADM3-GST [4]): 150000 M⁻¹ s⁻¹
iCADM3_3R1-L8_01 VHH-hG4PE(R409K) (Fc fusion, also called iCADM3-3R1-L8_01 humanized antibody; not shown: Hinge-CH2-CH3 region of the human IgG4 heavy chain constant region (IgG4 variant)) QVQLVQSGGGLVQPGGSLRLSCAASGRTFSNYARGWFRQAPGKGREFVAAIDYSGGSTNYADSAKGRFTISRDNSKNTLYLQMNSLRAEDTAVYYCAAPASRRPSWDADGYDYWGQGTLVTVSS	–	–	2.21	3.71	–
iCADM3_3R1-L8_02 VHH-hG4PE(R409K) (Fc fusion, also called iCADM3-3R1-L8_02 humanized antibody; not shown: Hinge-CH2-CH3 region of the human IgG4 heavy chain constant region (IgG4 variant)) QVQLVQSGGGLVQPGGSLRLSCAASGRTFSNYARGWFRQAPGKEREFVAAIDYSGGSTNYADSAKGRFTISRDNSKNTLYLQMNSLRAEDTAVYYCAAPASRRPSWDADGYDYWGQGTLVTVSS	–	–	2.8	4.83	–
iCADM3_3R1-L8_03 VHH-hG4PE(R409K) (Fc fusion, also called iCADM3-3R1-L8_03 humanized antibody; not shown: Hinge-CH2-CH3 region of the human IgG4 heavy chain constant region (IgG4 variant)) QVQLVESGGGLVQPGGSLRLSCAASGRTFSNYARGWFRQAPGKGREFVAAIDYSGGSTNYADSAKGRFTISRDNSKNTVYLQMNSLRAEDTAVYYCAAPASRRPSWDADGYDYWGQGTLVTVSS	–	–	5.65	8.54	Kd (mCADM3-GST [3]): 7.38 nM; koff (mCADM3-GST [3]): 0.0011 s⁻¹; kon (mCADM3-GST [3]): 150000 M⁻¹ s⁻¹; Kd (hCADM3-GST [4]): 10.3 nM; koff (hCADM3-GST [4]): 0.0019 s⁻¹; kon (hCADM3-GST [4]): 190000 M⁻¹ s⁻¹
AVM IgG4PE(R409K)_iCADM3_3R1-L10 dVHH (bispecific antibody, also called anti-AVM-IgG4-CADM3 VHH bispecific antibody) heavy: not shown light: QFVLSQPNSVSTNLGSTVKLSCKRSTGNIGSNYVSWYQQHEGRSPTTMIYRDDKRPDGVPDRFSGSIDRSSDSALLTINNVQTEDEADYFCQSYSSGINIFGGGTKLTVLGQPKAAPSVTLFPPSSEELQANKATLVCLISDFYPGAVTVAWKADSSPVKAGVETTTPSKQSNNKYAASSYLSLTPEQWKSHRSYSCQVTHEGSTVEKTVAPTECS	–	–	–	–	Mean fluorescence intensity ratio (mouse CADM3 [6]): 1.78
AVM IgG4PE(R409K)_iCADM3_3R1-L11 dVHH (bispecific antibody, also called anti-AVM-IgG4-CADM3 VHH bispecific antibody) heavy: not shown light: QFVLSQPNSVSTNLGSTVKLSCKRSTGNIGSNYVSWYQQHEGRSPTTMIYRDDKRPDGVPDRFSGSIDRSSDSALLTINNVQTEDEADYFCQSYSSGINIFGGGTKLTVLGQPKAAPSVTLFPPSSEELQANKATLVCLISDFYPGAVTVAWKADSSPVKAGVETTTPSKQSNNKYAASSYLSLTPEQWKSHRSYSCQVTHEGSTVEKTVAPTECS	–	–	–	–	Mean fluorescence intensity ratio (mouse CADM3 [6]): 4.66
